From patent publication US5962634A, “IgE antagonists” (Thomas Jefferson University, priority 1997, dated 1999) come the findings set out here.

The IC50 is the point on the concentration scale where inhibition reaches its midpoint. The low end stands for higher potency, the high end for lower potency.

One assay has as its target FcεR1α (Homo sapiens). Kind of assay: Surface plasmon resonance (BIAcore biosensor) inhibition of IgE-Fc binding to immobilized soluble FcεR1α. Conditions: peptide 2.5 mM; IgE-Fc 5 nM, association monitored for 6 minutes, 24° C. On the procedure:
The kinetics of binding of IgE Fc to soluble FcεR1α were determined using a BIAcore biosensor (Pharmacia Biosensor AB, Uppsala, Sweden). The FcεR1α was immobilized via primary amine groups to a carboxymethylated dextran-coated CM5 sensor chip, at a concentration of 85 μg/ml in 10mM sodium acetate buffer pH 4.5, using N-hydroxy-succinimide and N-ethyl-N'-(3-[…])-carbodiimide.Free sites were blocked with 1M ethanolamine-hydrochloride pH 8.5.
The association of IgE-Fc at a concentration of 5nM was monitored for 6 minutes in the presence and absence of a derivative of the D amino acid peptide #1 at various concentrations (at 24° C.) The derivative of D amino acid peptide #1 is identical to D amino acid #1, which is described in Example 3, except it is biotinylated.
On the technique in general: SPR reads the build-up and loss of mass on a sensor chip optically.

In another assay the target is labelled myeloma IgE. Kind of assay: competition: peptide titrated against 5 nM iodinated myeloma IgE binding to transfected CHO cells, gamma counting.

Bridges are numbered along the chain shown (N, C = ends). Where no end group is shown, it is not given here. [ ]: non-standard residue; d: D form.

FcεR1α (Homo sapiens), sequence (P01854 104-428 isoform P01854-1 limits assumed): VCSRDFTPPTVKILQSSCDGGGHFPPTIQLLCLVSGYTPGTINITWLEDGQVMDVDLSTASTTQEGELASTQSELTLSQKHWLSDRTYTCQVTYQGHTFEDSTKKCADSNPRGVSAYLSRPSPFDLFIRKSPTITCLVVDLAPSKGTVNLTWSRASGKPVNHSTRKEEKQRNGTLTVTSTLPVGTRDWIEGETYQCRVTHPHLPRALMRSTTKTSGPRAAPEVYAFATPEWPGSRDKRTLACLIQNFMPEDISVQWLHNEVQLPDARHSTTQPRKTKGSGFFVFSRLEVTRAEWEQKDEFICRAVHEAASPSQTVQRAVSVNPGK

Turning to “derivative of D amino acid peptide #1: identical to D amino acid peptide #1, which is described in Example 3, except it is biotinylated (CIYYKDGEALKY[dC]; disulfide 1-13; also: biotinylated (site not given here))”, in the assay with FcεR1α (Homo sapiens), the “inhibition of IgE-Fc binding” value was “virtually complete inhibition”.

B1: D amino acid peptide #1 (peptide)
peptide: CIYYKDGEALKY[dC]
modifications: disulfide 1-13
In the assay with labelled myeloma IgE, B1 had an IC50 of 5.14 µM.
